{"source": "paper PMC4108472", "about": "“Characterization of a Novel BCHE “Silent” Allele: Point Mutation (p.Val204Asp) Causes Loss of Activity and Prolonged Apnea with Suxamethonium” (PLoS ONE, 2014)", "target": "the molecule itself", "assay": "native gel or EMSA; nondenaturing gradient gel (4–30%) of plasma samples (5 µL/lane), bands stained for BChE activity with BTC as the substrate", "note": "“And” between values parts separate entries of the source, which are not always exact repeats. Equal values may be shown once."}
{"protein": "Butyrylcholinesterase (usual, wild-type) of human plasma (enzyme, human (endogenous in plasma), UniProt P06276 29-602, looked up, Butyrylcholinesterase, human, Swissprot P06276, as it circulates in plasma; Subunit of the plasma enzyme; Plasma of the heterozygous family members also holds variant subunits (p.Val204Asp; p.Asp70Gly-p.Ala539Thr); also called BChE; pseudocholinesterase; source: endogenous, human plasma (genotype UU control and family members' plasma)) EDDIIIATKNGKVRGMNLTVFGGTVTAFLGIPYAQPPLGRLRFKKPQSLTKWSDIWNATKYANSCCQNIDQSFPGFHGSEMWNPNTDLSEDCLYLNVWIPAPKPKNATVLIWIYGGGFQTGTSSLHVYDGKFLARVERVIVVSMNYRVGALGFLALPGNPEAPGNMGLFDQQLALQWVQKNIAAFGGNPKSVTLFGESAGAASVSLHLLSPGSHSLFTRAILQSGSFNAPWAVTSLYEARNRTLNLAKLTGCSRENETEIIKCLRNKDPQEILLNEAFVVPYGTPLSVNFGPTVDGDFLTDMPDILLELGQFKKTQILVGVNKDEGTAFLVYGAPGFSKDNNSIITRKEFQEGLKIFFPGVSEFGKESILFHYTDWVDDQRPENYREALGDVVGDYNFICPALEFTKKFSEWGNNAFFYYFEHRSSKLPWPEWMGVMHGYEIEFVFGLPLERRDNYTKAEEILSRSIVKRWANFAKYGNPNETQNNSTSWPVFKSTEQKYLTLNTESTRIMTKLRAQQCRFWTSFFPKVLEMTGNIDEAEWEWKAGFHRWNNYMMDWKNQFNDYTSKKESCVGL", "values": [{"measurement": "stoichiometry N", "result": "4 and 2"}]}
